According to publication PMC6894054:

Tested on: ILF3 mouse-human dsRBM2 (SPR) (mouse-human (so in the source))
Assay: SPR
Settings: ELISA and SPR buffers not given in the material (SPR: Biacore T100, biotin-RNA on streptavidin chip); biopanning: TENT (10 mM Tris-HCl pH 8.0, 1 mM EDTA, 250 mM)

In the case of invSINEB2 of AS Uchl1, the Kd is reported as 94.9 nM.
